The text below walks through data of US11896644B2, “Inhibition of beta-arrestin oligomerization in tauopathy” (UNIVERSITY OF SOUTH FLORIDA, priority 2020, dated 2024).

One experiment concerns p62 autophagy flux. Conditions: primary neurons, rAAV9 mCherry-EGFP-p62.
Experiment [1] concerns tau in tau P301S cortical primary neurons. The experiment is described as follows: Tau immunoblot of DIV18 tau P301S cortical primary neurons transduced with β-arrestin2 mutant lentivirus. Format: cell-based, mice. Conditions: DIV 18 tau P301S cortical primary neurons. The protocol:
FIGS. 4A to 4E show β-arrestin2 oligomerization is required for suppressing tau turnover. […] Data are shown as box plots or mean±SEM.
Primary mouse hippocampal and cortical neuronal cultures were previously described (Woo J A, et al. (2019) Commun Biol 2:112; Woo J A, et al. (2017) Hum Mol Genet 26(20):3973-3988; Woo J A, et al. (2015) Cell Death Differ 22(6):1069-1070). Briefly, primary neurons were prepared from P0 mice. Both hippocampus and cortex were dissected separately in HBSS and digested with trypsin. Neurons were plated on glass coverslips coated with poly-D-lysine (Sigma-Aldrich, St Louis, MO, USA) and maintained in neurobasal medium with glutamax (Invitrogen, Carlsbad, CA, USA) and B27 supplement (Invitrogen, Carlsbad, CA, USA). […]
When DIV 18 tau P301S cortical primary neurons were transduced with either β-arrestin2 ΔIP6C or ΔIP6N lentivirus, an approximately 50% reduction in tau compared to control was evident (FIGS. 4A,4B), which represents a key finding relevant to both mechanism of action and potential therapeutic strategies. […] To determine whether β-arrestin2 oligomerization status alters tau aggregation itself, filter-trap assays were performed from Hela-V5-tau cells transfected with β-arrestin2 variants, in which tau aggregates from detergent-soluble and-insoluble lysates were captured by cellulose acetate membranes and assessed by immunoblotting.

In a further experiment the target is T1, HA-p62/GFP-p62 complex (Homo sapiens, UniProt Q13501).
T1 construct: #38277; host or cells: Hela-V5-tau cells
In words: PLA of HA-p62/GFP-p62 complex (p62 self-interaction). The experiment is classed as cell-based. Conditions: Hela-V5-tau cells. The protocol: Data are shown as box plots or mean±SEM.
Given the effects on p62 autophagy flux, whether β-arrestin2 physically interacts with p62 was tested. […] Given that β-arrestin2 oligomeric mutants, ΔIP6C and ΔIP6N, reduced tau aggregates by slowing tau turnover, next tested was whether β-arrestin2 ΔIP6C and ΔIP6N mutants affect p62 self-association by a proximity ligation assays (PLA) as well as co-IP. […] Recent studies have shown that purified recombinant p62 spontaneously forms globular oligomers (Zaffagnini G, et al. (2018) EMBO J 37(5)). To test whether β-arrestin2 can directly affect p62 oligomerization in vitro, purified recombinant p62, β-arrestin2, and p62 mixed with β-arrestin2 with atomic force microscopy were visualized. Recombinant p62 spontaneously formed visible globular particles between 5-100 nm in diameter (FIG. 5K), whereas only very few small β-arrestin2 particles were visible under identical conditions (FIG. 5K). […] Next tested was whether β-arrestin2 oligomerization is required for bafilomycin A-induced p62 puncta formation. As expected, GFP-p62 puncta were increased upon bafilomycin A treatment in control vector transfected cells (FIGS. 5M,5N).

In another experiment the test system is tau in Hela-V5-tau cells. The experiment is described as follows: Tau immunocytochemistry in Hela-V5-tau cells expressing YFP-β-arrestin2 mutants. The experiment is classed as cell-based. The source says:
FIGS. 11A to 11E show β-arrestin2 oligomerization mutants reduce tau aggregates. FIG. 11A contains representative confocal images of total tau in Hela-V5-tau cells transfected with YFP, YFP-β-arrestin2 ΔIP6C, or YFP-β-arrestin2 ΔIP6N (Scale bar=10 μm). FIG. 11B contains representative confocal images of proximity ligation assay (PLA) in Hela-V5-tau cells transfected with β-arrestin2-flag and β-arrestin2-myc with YFP control, YFP-β-arrestin2 ΔIP6C, or YFP-β-arrestin2 ΔIP6N.
Cells were fixed with 4% paraformaldehyde for 15 min at room temperature and washed with 0.2% triton in TBS and blocked using 3% BSA with 0.1% triton x-100 for 1 hr, incubated with primary antibodies for overnight at 4° C. and fluorescently labeled secondary antibodies for 45 min at room temperature. For immunohistochemistry, mice were perfused with PBS and fixed with 4% paraformaldehyde. […] Images were captured with the Olympus FV10i confocal microscope (Tokyo, Japan), and the immunoreactivities were quantified using the Image J software (National Institutes of Health, Bethesda, MD). Immunoreactivities were quantitated from every 12th serial section through an entire hippocampus. […] Regions of interest were chosen randomly, and investigators were blinded to experimental conditions during image acquisition and quantification. […]

From the text for p62 autophagy flux: To directly test this hypothesis, the mCherry-EGFP-p62 autophagy flux reporter was used. This reporter takes advantage of the sensitivity of GFP to low pH (which quenches the signal) and the insensitivity of mCherry to low pH. Therefore, colocalized red and green puncta are indicative of non-lysosomal p62 at steady-state.

B1: β-arrestin2 ΔIP6N: β-arrestin2 N-terminal domain mutant (K158A, K161A, and R162A), incapable of forming oligomers; dominant negative (protein, UniProt P32121 1-409, looked up, variant K158A K161A R162A)
Beta-arrestin-2: MGEKPGTRVFKKSSPNCKLTVYLGKRDFVDHLDKVDPVDGVVLVDPDYLKDRKVFVTLTCAFRYGREDLDVLGLSFRKDLFIATYQAFPPVPNPPRPPTRLQDRLLRKLGQHAHPFFFTIPQNLPCSVTLQPGPEDTGKACGVDFEIRAFCAKSLEEASHAANSVRLVIRKVQFAPEKPGPQPSAETTRHFLMSDRSLHLEASLDKELYYHGEPLNVNVHVTNNSTKTVKKIKVSVRQYADICLFSTAQYKCPVAQLEQDDQVSPSSTFCKVYTITPLLSDNREKRGLALDGKLKHEDTNLASSTIVKEGANKEVLGILVSYRVKVKLVVSRGGDVSVELPFVLMHPKPHDHIPLPRPQSAAPETDVPVDTNLIEFDTNYATDDDIVFEDFARLRLKGMKDDDYDDQLC
modifications: GFP or YFP tag
notes: dominant negative
With B1, the “ratio of mCherry only to total puncta” value in the experiment on p62 autophagy flux was “significantly increased”. Further, the “reduction in tau compared to control” value in experiment [1] is “approximately 50%”. The “HA-p62/GFP-p62 PLA puncta (p62 self-interaction)” value with HA-p62/GFP-p62 complex is “neither β-arrestin2 ΔIP6C nor β-arrestin2 ΔIP6N reduced HA-p62/GFP-p62 PLA puncta”. Besides, the tau by immunocytochemistry result in the experiment with tau in Hela-V5-tau cells is on record as “significant reductions”.
